Assay results: US20240116985A1, “STAPLED PEPTIDES AND METHODS THEREOF” (priority 2020, published 2024)
Starred links: 1 amine or outer side, 2 acyl side, 3 side chain; linkers in the order of their positions; H or OH if unused. Positions of bridges follow the written chain, without caps; N, C: chain ends. Non-standard residues stand in square brackets, D forms with d. Primed or numbered codes have the meaning given here. PyrS2″ = (S)-3-amino-1-((pent-4-en-1-yloxy)carbonyl)pyrrolidine-3-carboxylic acid (stapling residue), C=CCCCOC(=O)N1CC[C@@](N[*:1])(C(=O)[*:2])C1; B5(24) = 2-amino-2-(pent-4-en-1-yl)hept-6-enoic acid, 2,2-bis(4-pentenyl)glycine (stitching residue), C=CCCCC(CCCC=C)(N[*:1])C(=O)[*:2]; B5(4) = 2,2-bis(4-pentenyl)glycine = 2-amino-2-(pent-4-en-1-yl)hept-6-enoic acid (stitching residue), C=CCCCC(CCCC=C)(N[*:1])C(=O)[*:2]; B5(12) = 2-amino-2-(pent-4-en-1-yl)hept-6-enoic acid (two olefin side chains), C=CCCCC(CCCC=C)(N[*:1])C(=O)[*:2]; B5(19) = 2-amino-2-(pent-4-en-1-yl)hept-6-enoic acid (bis(4-pentenyl)glycine), C=CCCCC(CCCC=C)(N[*:1])C(=O)[*:2]; Ala(morpholin-4-yl) = N[C@@H](CN1CCOCC1)C(=O)O; Phe(3-CONH2) = NC(=O)c1cccc(C[C@H](N)C(=O)O)c1; Phe(3-COOH) = N[C@@H](Cc1cccc(C(=O)O)c1)C(=O)O; Phe(3-Cl) = N[C@@H](Cc1cccc(Cl)c1)C(=O)O; Phe(3-OMe) = COc1cccc(C[C@H](N)C(=O)O)c1; Phe(2-Cl) = N[C@@H](Cc1ccccc1Cl)C(=O)O; Bta = N[C@@H](Cc1csc2ccccc12)C(=O)O; Lys(iPr) = CC(C)NCCCC[C@H](N)C(=O)O; αAllylPro = C=CC[C@@]1(C(=O)O)CCCN1; tBuAla = CC(C)(C)C[C@H](N)C(=O)O; 2Pal = N[C@@H](Cc1ccccn1)C(=O)O; 3Pal = N[C@@H](Cc1cccnc1)C(=O)O; 3Thi = N[C@@H](Cc1ccsc1)C(=O)O; Cha = N[C@@H](CC1CCCCC1)C(=O)O; S8 = C=CCCCCCC[C@](C)(N)C(=O)O; PyrS2(4) = not defined here; hSer = N[C@@H](CCO)C(=O)O; Nle = CCCC[C@H](N)C(=O)O; Aib = CC(C)(N)C(=O)O

Assays:
[1] = biological target: full-length beta-Catenin (Uniprot ID P35222) (Homo sapiens (Human)) (UniProt P35222); assay: fluorescence polarization competition; 10 nM full-length beta-catenin with 10 nM 5FAM-labeled TCF4 residues 10-53 probe (competitor displaced)
Target sequence in this assay (P35222 2-781 limits assumed): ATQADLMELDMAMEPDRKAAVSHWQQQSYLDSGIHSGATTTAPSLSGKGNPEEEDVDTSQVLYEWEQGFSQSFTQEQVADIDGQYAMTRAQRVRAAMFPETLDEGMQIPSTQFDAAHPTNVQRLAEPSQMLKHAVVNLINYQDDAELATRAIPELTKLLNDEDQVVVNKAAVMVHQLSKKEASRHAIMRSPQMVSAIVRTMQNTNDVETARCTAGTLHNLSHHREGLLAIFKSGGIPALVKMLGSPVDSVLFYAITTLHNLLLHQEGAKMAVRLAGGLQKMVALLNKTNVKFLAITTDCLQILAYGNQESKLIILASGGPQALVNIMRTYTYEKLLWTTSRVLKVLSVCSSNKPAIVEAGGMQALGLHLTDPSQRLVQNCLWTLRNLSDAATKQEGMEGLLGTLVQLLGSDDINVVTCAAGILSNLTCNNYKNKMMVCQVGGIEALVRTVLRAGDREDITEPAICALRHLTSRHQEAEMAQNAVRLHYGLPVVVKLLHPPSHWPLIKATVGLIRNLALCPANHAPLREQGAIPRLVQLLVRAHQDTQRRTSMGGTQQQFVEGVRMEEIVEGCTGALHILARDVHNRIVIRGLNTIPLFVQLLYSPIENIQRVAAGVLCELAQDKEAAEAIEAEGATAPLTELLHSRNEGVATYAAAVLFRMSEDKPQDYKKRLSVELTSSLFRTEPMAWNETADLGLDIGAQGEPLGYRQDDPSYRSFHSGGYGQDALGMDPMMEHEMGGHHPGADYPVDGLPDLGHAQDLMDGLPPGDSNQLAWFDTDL

[2] = biological target: full-length beta-Catenin (Uniprot ID P35222) (Homo sapiens (Human)) (UniProt P35222); assay: fluorescence polarization competition; full-length beta-catenin with 5FAM-labeled TCF4 (residues 10-53) probe as competitor
Target sequence in this assay (P35222 whole entry, the tested form may be a part): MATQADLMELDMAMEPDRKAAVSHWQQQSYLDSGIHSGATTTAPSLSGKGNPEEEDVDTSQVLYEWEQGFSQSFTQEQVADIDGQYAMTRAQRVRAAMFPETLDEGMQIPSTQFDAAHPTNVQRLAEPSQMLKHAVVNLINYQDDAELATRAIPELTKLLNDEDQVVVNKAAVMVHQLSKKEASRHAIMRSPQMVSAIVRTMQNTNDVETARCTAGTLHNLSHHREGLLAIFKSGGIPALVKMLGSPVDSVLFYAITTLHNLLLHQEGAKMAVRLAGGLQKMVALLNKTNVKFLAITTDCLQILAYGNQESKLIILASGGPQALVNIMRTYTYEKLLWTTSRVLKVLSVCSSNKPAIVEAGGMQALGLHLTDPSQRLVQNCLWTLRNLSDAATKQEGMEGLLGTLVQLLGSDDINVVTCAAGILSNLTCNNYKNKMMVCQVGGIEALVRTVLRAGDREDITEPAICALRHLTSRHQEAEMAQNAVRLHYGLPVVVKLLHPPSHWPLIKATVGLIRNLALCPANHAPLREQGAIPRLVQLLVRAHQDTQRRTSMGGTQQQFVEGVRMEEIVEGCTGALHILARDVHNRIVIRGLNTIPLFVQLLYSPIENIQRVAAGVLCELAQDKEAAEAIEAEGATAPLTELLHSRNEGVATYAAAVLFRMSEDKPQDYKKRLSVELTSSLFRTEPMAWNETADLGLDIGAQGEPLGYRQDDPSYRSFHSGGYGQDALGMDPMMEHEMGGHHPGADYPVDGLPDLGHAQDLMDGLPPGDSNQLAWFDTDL

[3] = biological target: full-length beta-Catenin (Uniprot ID P35222) (Homo sapiens (Human)) (UniProt P35222); assay: fluorescence polarization competition, 5FAM-TCF4 10-53 probe on full-length beta-catenin
Target sequence in this assay (P35222 2-781 limits assumed): as the sequence (P35222 2-781 limits assumed) above

[4] = biological target: full-length beta-Catenin (Uniprot ID P35222) (Homo sapiens (Human)) (UniProt P35222); assay: fluorescence polarization competition, full-length beta-catenin, competitor 5FAM-TCF4 10-53
Target sequence in this assay (P35222 whole entry, the tested form may be a part): as the sequence (P35222 whole entry, the tested form may be a part) above

Row | Binder | IC50 [1] [nM] | other results
1 | Ac-[αAllylPro]DA[B5(4)]DEAAFV[S8][2Pal][Bta]Q-NH2 (staple 1-4, 4-11; also: later eluting staple isomer) [I-384] |  | IC50 [2]: 177 nM
2 | Ac-[αAllylPro]D[tBuAla][B5(24)]DD[Lys(iPr)]AFN[PyrS2″][Phe(2-Cl)][Bta]Q-NH2 (staple 1-4, 4-11) [I-1131] |  | EC50 [3]: 7 nM; IC50 [4]: 7 nM
3 | Ac-[αAllylPro]D[tBuAla][B5(4)]D[Phe(3-COOH)]HAFL[PyrS2(4)][3Thi][Bta]A-NH2 (staple 1-4, 4-11; not fully specified; printed as Ac-PL3-Asp-Npg-B5-Asp-3COOHF-His-Ala-Phe-Leu-PyrS2-3Thi-BztA-Ala-NH2; reading uncertain) [I-1916] | 8 | 
4 | Ac-[αAllylPro]D[tBuAla][B5(12)]D[Phe(3-COOH)][Aib]AFL[PyrS2(4)][3Thi][Bta]F-NH2 (staple 1-4, 4-11; not fully specified; printed as Ac-PL3-Asp-Npg-B5-Asp-3COOHF-Aib-Ala-Phe-Leu-PyrS2-3Thi-BztA-Phe-NH2; reading uncertain) [I-1914] | 52 | 
5 | Ac-[αAllylPro]D[tBuAla][B5(4)]DDAAFN[PyrS2″][Phe(2-Cl)][Bta][Ala(morpholin-4-yl)]-NH2 (staple 1-4, 4-11; also: later eluting staple isomer) [I-1134] |  | EC50 [3]: 6 nM; IC50 [4]: 6 nM
6 | Ac-[αAllylPro]D[Cha][B5(4)]DDAAFS[PyrS2″][Phe(2-Cl)][Bta]T-NH2 (staple 1-4, 4-11) [I-1135] |  | EC50 [3]: 20 nM; IC50 [4]: 20 nM
7 | Ac-[αAllylPro]D[tBuAla][B5(24)]DDA[Lys(iPr)]FN[PyrS2″][Phe(2-Cl)][Bta]Q-NH2 (staple 1-4, 4-11) [I-1132] |  | EC50 [3]: 21 nM; IC50 [4]: 21 nM
8 | Ac-[αAllylPro]D[Cha][B5(24)]DDAAFS[PyrS2″][Phe(2-Cl)][Bta][dT]-NH2 (staple 1-4, 4-11) [I-1136] |  | EC50 [3]: 16 nM; IC50 [4]: 16 nM
9 | Ac-[αAllylPro]D[tBuAla][B5(4)]DDAAFN[PyrS2″][Phe(2-Cl)][Bta][Ala(morpholin-4-yl)]-NH2 (staple 1-4, 4-11; also: earlier eluting staple isomer) [I-1133] |  | EC50 [3]: 5 nM; IC50 [4]: 5 nM
10 | Ac-[αAllylPro]D[tBuAla][B5(12)]D[Phe(3-COOH)][Nle]AFL[PyrS2(4)][3Thi][Bta]F-NH2 (staple 1-4, 4-11; not fully specified; printed as Ac-PL3-Asp-Npg-B5-Asp-3COOHF-nLeu-Ala-Phe-Leu-PyrS2-3Thi-BztA-Phe-NH2; reading uncertain) [I-1913] | 119 | 

Continued, in another order:

Row | IC50 [1] [nM] | Binder | other results
11 | 1560 | Ac-[αAllylPro]N[Cha][B5(19)]DQ[Lys(iPr)]AFN[PyrS2″][Phe(3-OMe)][Bta][hSer]-NH2 (staple 1-4, 4-11) [I-1930] | 
12 | 5 | Ac-[αAllylPro]D[tBuAla][B5(4)]D[Phe(3-COOH)]QAFL[PyrS2(4)][3Thi][Bta]A-NH2 (staple 1-4, 4-11; not fully specified; printed as Ac-PL3-Asp-Npg-B5-Asp-3COOHF-Gln-Ala-Phe-Leu-PyrS2-3Thi-BztA-Ala-NH2; reading uncertain) [I-1918] | 
13 | 1610 | Ac-[αAllylPro]N[Cha][B5(12)]DQ[Lys(iPr)]A[Phe(3-Cl)]N[PyrS2(4)]F[Bta][hSer]-NH2 (staple 1-4, 4-11; not fully specified; printed as Ac-PL3-Asn-Cha-B5-Asp-Gln-iPrLys-Ala-3C1F-Asn-PyrS2-Phe-BztA-Hse-NH2; reading uncertain) [I-1924] | 
14 | 154 | Ac-[αAllylPro]N[Cha][B5(19)]D[hSer][Lys(iPr)]AFN[PyrS2″]F[Bta][hSer]-NH2 (staple 1-4, 4-11) [I-1933] | 
15 | 887 | Ac-[αAllylPro]N[Cha][B5(19)]DQ[Lys(iPr)]AFN[PyrS2″][Phe(3-Cl)][Bta][hSer]-NH2 (staple 1-4, 4-11) [I-1928] | 
16 | 74 | Ac-[αAllylPro]N[Cha][B5(19)]DQ[Lys(iPr)]AFN[PyrS2″][Phe(3-CONH2)][Bta][hSer]-NH2 (staple 1-4, 4-11) [I-1929] | 
17 | 10000 | Ac-[αAllylPro]N[Cha][B5(12)]DQ[Lys(iPr)]A[3Pal]N[PyrS2(4)]F[Bta][hSer]-NH2 (staple 1-4, 4-11; not fully specified; printed as Ac-PL3-Asn-Cha-B5-Asp-Gln-iPrLys-Ala-3PyrA-Asn-PyrS2-Phe-BztA-Hse-NH2; reading uncertain) [I-1923] | 
18 | 475 | Ac-[αAllylPro]N[Cha][B5(19)]DQ[Lys(iPr)]A[Phe(3-CONH2)]N[PyrS2″]F[Bta][hSer]-NH2 (staple 1-4, 4-11) [I-1925] | 
19 | 417 | Ac-[αAllylPro]N[Cha][B5(19)]DQ[Lys(iPr)]A[Phe(3-OMe)]N[PyrS2″]F[Bta][hSer]-NH2 (staple 1-4, 4-11) [I-1926] | 
20 | 457 | Ac-[αAllylPro]N[Cha][B5(12)]DQ[Lys(iPr)]AF[hSer][PyrS2(4)]F[Bta][hSer]-NH2 (staple 1-4, 4-11; not fully specified; printed as Ac-PL3-Asn-Cha-B5-Asp-Gln-iPrLys-Ala-Phe-Hse-PyrS2-Phe-BztA-Hse-NH2; reading uncertain) [I-1922] | 
21 | 5140 | Ac-[αAllylPro]N[Cha][B5(19)]DQ[Lys(iPr)]AFN[PyrS2″][3Pal][Bta][hSer]-NH2 (staple 1-4, 4-11) [I-1927] | 
22 | 1560 | Ac-[αAllylPro]N[Cha][B5(19)]DQ[Lys(iPr)]SFN[PyrS2″]F[Bta][hSer]-NH2 (staple 1-4, 4-11) [I-1931] | 
